{"source": "patent US20140004122A1", "about": "“METHODS FOR TREATING OR PREVENTING CHOLESTEROL RELATED DISORDERS” (AMGEN INC., priority 2011, published 2014)", "molecules": {"B1": {"name": "21B12: human anti-PCSK9 monoclonal antibody; light/heavy variable region SEQ ID NO 23/49 (antibody, listed as Homo sapiens, V domains shown)", "VH": "QVQLVQSGAEVKKPGASVKVSCKASGYTLTSYGISWVRQAPGQGLEWMGWVSFYNGNTNYAQKLQGRGTMTTDPSTSTAYMELRSLRSDDTAVYYCARGYGMDVWGQGTTVTVSS", "VL": "QSALTQPASVSGSPGQSITISCTGTSSDVGGYNSVSWYQQHPGKAPKLMIYEVSNRPSGVSNRFSGSKSGNTASLTISGLQAEDEADYYCNSYTSTSMVFGGGTKLTVL"}}, "key": {"human PCSK9 [1]": {"target": "T1, human PCSK9 (Homo sapiens, UniProt Q8NBP7)", "test": "BIAcore affinity analysis", "format": "binding", "settings": "pH 7.4; read-out: KD hPCSK9", "procedure": "Briefly, the surface plasmon resonance experiments were performed using Biacore 2000 optical biosensors (Biacore, GE Healthcare, Piscataway, N.J.). […] The concentration of PCSK9 protein was varied at 2 fold intervals (the analyte) and was injected over the immobilized antibody surface (at a flow rate of 100 μl/min for 1.5 minutes). Fresh HBS-P buffer (pH 7.4, 0.01 M Hepes, 0.15 M NaCl, 0.005% surfactant P-20, Biacore) supplemented with 0.01% BSA was used as binding buffer.\nThe binding signal obtained was proportional to the free PCSK9 in solution.\nAntibody binding kinetic parameters including ka (association rate constant), kd (dissociation rate constant), and KD (dissociation equilibrium constant) were determined using the BIA evaluation 3.1 computer program (BIAcore, Inc. Piscataway, N.J.)."}, "[2]": {"system": "subjects with hypercholesterolemia on a statin", "test": "12 week dose-ranging study in combination with statin (Example 25)", "format": "in vivo, human", "settings": "preliminary", "procedure": "Randomization will be stratified by screening LDL-C level (<130 mg/dL [3.4 mmol/L] vs≧130 mg/dL) and ezetimibe use at baseline (yes vs no). Randomization should occur within 5-10 days of the screening LDL-C evaluation used to determine eligibility. Study visits are every 2 weeks, irrespective whether the subject receives Q2W SC or Q4W treatment. […] The end-of-study visit and the last estimation of lipids is at week 12 for subjects on Q4W IP schedule and week 14 for subjects on Q2W IP schedule.\nMales and females, ≧18 to ≦80 years of age, are eligible for this study. For enrollment, subjects must be on a statin, with or without ezetimibe, with stable dose(s) for at least 4 weeks before LDL-C screening and not requiring uptitration. Fasting LDL-C at screening must be ≧85 mg/dL (2.2 mmol/L). Enrollment of subjects with screening fasting LDL-C between ≧85 mg/dL (2.2 mmol/L) and <100 mg/dL (2.6 mmol/L) will be limited to no more than approximately 20% of total planned enrollment. Fasting triglycerides must be ≦400 mg/dL (4.5 mmol/L) as determined by the central laboratory analysis at screening."}, "[3]": {"target": "D374Y PCSK9 binding to LDLR (Homo sapiens, UniProt Q8NBP7, D374Y)", "test": "Large scale receptor ligand blocking screen and functional classification of ABPs", "settings": "functional assays of the screening", "procedure": "To screen for the antibodies that block PCSK9 binding to LDLR an assay was developed using the D374Y PCSK9 mutant. […] The following protocol was employed in the receptor ligand blocking screen: Costar 3702 medium binding 384 well plates (Corning Life Sciences) were employed in the screen. The plates were coated with goat anti-LDLR (R&D Cat #AF2148) at 2 μg/ml in 1×PBS/0.05% Azide at a volume of 40 μl/well. The plates were incubated at 4° C. overnight. The plates were then washed using a Titertek plate washer (Titertek, Huntsville, Ala.). A 3-cycle wash was performed. The plates were blocked with 90 μl of 1×PBS/1% milk and incubated approximately 30 minutes at room temperature. The plates were then washed using the Titertek plate washer. A 3-cycle wash was performed. The capture sample was LDLR (R&D, Cat #2148LD/CF), and was added at 0.4 μg/ml in 1×PBS/1% milk/10 mM Ca^2+ at a volume of 40 μl/well. The plates were then incubated for 1 hour and 10 minutes at room temperature. Contemporaneously, 20 ng/ml of biotinylated human D374Y PCSK9 was incubated with 15 micro liters of hybridoma exhaust supernatant in Nunc polypropylene plates and the exhaust supernatant concentration was diluted 1:5. The plates were then pre-incubated for about 1 hour and 30 minutes at room temperature. Next, the plates were washed using the Titertek plate washer operated using a 3-cycle wash. 50 μl/well of the pre-incubated mixture was transferred onto the LDLR coated ELISA plates and incubated for 1 hour at room temperature. To detect LDLR-bound b-PCSK9, 40 μl/well streptavidin HRP at 500 ng/ml in assay diluent was added to the plates. The plates were incubated for 1 hour at room temperature. The plates were again washed using a Titertek plate washer. A 3-cycle wash was performed. Finally, 40 μl/well of One-step TMB (Neogen, Lexington, Ky.) was added to the plate and was quenched with 40 μl/well of 1N hydrochloric acid after 30 minutes at room temperature. OD's were read immediately at 450 nm using a Titertek plate reader.\nThe receptor ligand assay was then repeated using the mutant enzyme on the 384 member subset of neutralizers identified in the first large scale receptor ligand inhibition assay. The same protocol was employed in the screen of the 384 member blocker subset assay as was done in the large scale receptor ligand blocking screen.\nLimiting dilution was used to isolate a manageable number of clones from each line. […] The isolated clones were each expanded in 50-100 ml of hybridoma media and allowed to grow to exhaustion, (i.e., less than about 10% cell viability). The concentration and potency of the antibodies to PCSK9 in the supernatants of those cultures were determined by ELISA and by in vitro functional testing, as described herein."}, "human PCSK9 [4]": {"target": "T1, human PCSK9", "test": "BIAcore affinity analysis", "format": "binding", "settings": "human PCSK9, pH 6.0, n=1"}, "[5]": {"settings": "70 mg (Q2W), end of the dosing interval"}, "[6]": {"settings": "105 mg (Q2W), end of the dosing interval"}, "[7]": {"settings": "280 mg (Q2W as printed), end of the dosing interval"}, "[8]": {"settings": "350 mg (Q2W as printed), end of the dosing interval"}}, "note": "Like-named read-outs stand apart in the source and are kept apart here.", "data": [{"molecule": "B1", "values": [{"measurement": "Kd", "setting": "human PCSK9 [1]", "result": 0.19, "unit": "nM"}, {"measurement": "LS mean percent increase from baseline in HDL-C", "setting": "[2]; [5]", "result": 21.17, "unit": "%"}, {"measurement": "LS mean percent reduction from baseline in LDL-C", "setting": "[2]; [5]", "result": 39.22, "unit": "%"}, {"measurement": "LS mean percent reduction from baseline in Lp(a)", "setting": "[2]; [5]", "result": 21.17, "unit": "%"}, {"measurement": "LS mean percent reduction from baseline in VLDL-C", "setting": "[2]; [5]", "result": 14.84, "unit": "%"}, {"measurement": "LS mean percent reduction from baseline in non-HDL-C", "setting": "[2]; [5]", "result": 36.20, "unit": "%"}, {"measurement": "LS mean percent reduction from baseline in total cholesterol", "setting": "[2]; [5]", "result": 26.33, "unit": "%"}, {"measurement": "LS mean percent reduction from baseline in triglycerides", "setting": "[2]; [5]", "result": 7.20, "unit": "%"}, {"measurement": "LS mean percent increase from baseline in HDL-C", "setting": "[2]; [6]", "result": 6.80, "unit": "%"}, {"measurement": "LS mean percent reduction from baseline in LDL-C", "setting": "[2]; [6]", "result": 56.38, "unit": "%"}, {"measurement": "LS mean percent reduction from baseline in Lp(a)", "setting": "[2]; [6]", "result": 33.41, "unit": "%"}, {"measurement": "LS mean percent reduction from baseline in VLDL-C", "setting": "[2]; [6]", "result": 12.75, "unit": "%"}, {"measurement": "LS mean percent reduction from baseline in non-HDL-C", "setting": "[2]; [6]", "result": 51.20, "unit": "%"}, {"measurement": "LS mean percent reduction from baseline in total cholesterol", "setting": "[2]; [6]", "result": 36.91, "unit": "%"}, {"measurement": "LS mean percent reduction from baseline in triglycerides", "setting": "[2]; [6]", "result": 5.65, "unit": "%"}, {"measurement": "LS mean percent increase from baseline in HDL-C", "setting": "[2]; 140 mg (Q2W)", "result": 8.43, "unit": "%"}, {"measurement": "LS mean percent reduction from baseline in LDL-C", "setting": "[2]; 140 mg (Q2W)", "result": 68.76, "unit": "%"}, {"measurement": "LS mean percent reduction from baseline in Lp(a)", "setting": "[2]; 140 mg (Q2W)", "result": 33.87, "unit": "%"}, {"measurement": "LS mean percent reduction from baseline in VLDL-C", "setting": "[2]; 140 mg (Q2W)", "result": 45.14, "unit": "%"}, {"measurement": "LS mean percent reduction from baseline in non-HDL-C", "setting": "[2]; 140 mg (Q2W)", "result": 64.61, "unit": "%"}, {"measurement": "LS mean percent reduction from baseline in total cholesterol", "setting": "[2]; 140 mg (Q2W)", "result": 46.17, "unit": "%"}, {"measurement": "LS mean percent reduction from baseline in triglycerides", "setting": "[2]; 140 mg (Q2W)", "result": 17.60, "unit": "%"}, {"measurement": "LS mean percent increase from baseline in HDL-C", "setting": "[2]; [7]", "result": 2.17, "unit": "%"}, {"measurement": "LS mean percent reduction from baseline in Lp(a)", "setting": "[2]; [7]", "result": 22.54, "unit": "%"}, {"measurement": "LS mean percent reduction from baseline in VLDL-C", "setting": "[2]; [7]", "result": 18.12, "unit": "%"}, {"measurement": "LS mean percent reduction from baseline in non-HDL-C", "setting": "[2]; [7]", "result": 38.89, "unit": "%"}, {"measurement": "LS mean percent reduction from baseline in total cholesterol", "setting": "[2]; [7]", "result": 28.08, "unit": "%"}, {"measurement": "LS mean percent reduction from baseline in triglycerides", "setting": "[2]; [7]", "result": 6.75, "unit": "%"}, {"measurement": "LS mean percent reduction from baseline in LDL-C", "setting": "[2]; 280 mg (Q4W), end of the dosing interval", "result": 42.62, "unit": "%"}, {"measurement": "LS mean percent increase from baseline in HDL-C", "setting": "[2]; [8]", "result": 6.92, "unit": "%"}, {"measurement": "LS mean percent reduction from baseline in Lp(a)", "setting": "[2]; [8]", "result": 29.43, "unit": "%"}, {"measurement": "LS mean percent reduction from baseline in VLDL-C", "setting": "[2]; [8]", "result": 20.89, "unit": "%"}, {"measurement": "LS mean percent reduction from baseline in non-HDL-C", "setting": "[2]; [8]", "result": 50.83, "unit": "%"}, {"measurement": "LS mean percent reduction from baseline in total cholesterol", "setting": "[2]; [8]", "result": 36.04, "unit": "%"}, {"measurement": "LS mean percent reduction from baseline in triglycerides", "setting": "[2]; [8]", "result": 9.17, "unit": "%"}, {"measurement": "LS mean percent reduction from baseline in LDL-C", "setting": "[2]; 350 mg, end of the dosing interval", "result": 56.84, "unit": "%"}, {"measurement": "LS mean percent increase from baseline in HDL-C", "setting": "[2]; 420 mg (Q2W as printed)", "result": 7.42, "unit": "%"}, {"measurement": "LS mean percent reduction from baseline in Lp(a)", "setting": "[2]; 420 mg (Q2W as printed)", "result": 23.29, "unit": "%"}, {"measurement": "LS mean percent reduction from baseline in VLDL-C", "setting": "[2]; 420 mg (Q2W as printed)", "result": 28.66, "unit": "%"}, {"measurement": "LS mean percent reduction from baseline in non-HDL-C", "setting": "[2]; 420 mg (Q2W as printed)", "result": 48.54, "unit": "%"}, {"measurement": "LS mean percent reduction from baseline in total cholesterol", "setting": "[2]; 420 mg (Q2W as printed)", "result": 42.76, "unit": "%"}, {"measurement": "LS mean percent reduction from baseline in triglycerides", "setting": "[2]; 420 mg (Q2W as printed)", "result": 11.13, "unit": "%"}, {"measurement": "LS mean percent reduction from baseline in LDL-C", "setting": "[2]; 420 mg", "result": 52.19, "unit": "%"}, {"measurement": "neutralizing ability (blocking PCSK9/LDLR)", "setting": "[3]", "result": "neutralizing"}, {"measurement": "Kd", "setting": "human PCSK9 [4]", "result": 0.0073, "unit": "nM"}]}]}
